From US10499655B2, “Reagents and methods for inhibiting or disrupting biofilm” (priority 2015, dated 2019)

B1: PsIG protein: Protein from Pseudomonas aeruginosa PAO1, purified PsIG (31-442) of SEQ ID NO.: 2, expressed in E. coli, 47 kDa (protein, listed as Pseudomonas aeruginosa)
chain: EIQVLKAPRAVVWKDFLGVNAQFLWFSPERYNKQIDRLQDLGLEWVRLDLHWDRLETAEDQYQLASLDQLVKDLEARQLKSVFYLVGSARFITTAPFYSPFQDQYPPRDPEVFARRMAMLSQRYPSVAAWQVWNEPNLIGFWRPKADPEGYAKLLQASTIALRMVDPEKPVVSAGMAFFSEMPDGRTMFDALGHLGVESLGTIATYHPYTQLPEGNYPWNLDFVSHANQINRALRNAGVPAIWSTEWGWSAYKGPKELQDIIGVEGQADYVLRRLALMSALDYDRIFLFTLSDLDQRASVRDRDYGLLDLDANPKPVYLALQRFLKVTGPKLRPADPPVTEDLPDGSFSIGWTREDGRNVWLFWSARGGNVRLPKLKEATLHDPLSGKVTPLSGSDGLEVPVKSSLQMLVWE

Assays:
Pseudomonas aeruginosa [1] = test: MIC test strips on bacteria dispersed from a biofilm by PsIG versus planktonic bacteria; type: cell-based; details: 24-hour biofilm treated with PsIG 1 hour; MIC read after 16 hours at 37 degrees centigrade
Procedure: Planktonic Pseudomonas aeruginosa may be cultured for 24 hours with shocking in LBNS medium, and 0.2 ml of such culture may be used as control. As shown in FIGS. 8(a) and 8(c), a control group have shown measurement of MIC values of TOB, CIP by a planktonic bacteria. FIGS. 8(b) and 8(d) have shown measurement of MIC values of TOB, CIP by bacteria cells dispersed from the biofilm after the treatment of the PsIG protein.

[2] = tested on: biofilm of Pseudomonas aeruginosa; test: Inhibition of biofilm formation, crystal violet staining, 96-well plate; type: cell-based
Excerpt: (§1) The biomass of the biofilm has been detected by a crystal violet staining method. The method including: discarding cultures (bacteria that are not attached on wells.) in the wells, and washing three times. Then, the biofilm may be stained with 0.1% crystal violet, and washed three times, then the crystal violet combined in the biofilm may be dissolved with 30% acetic acid, and the value of OD560 thereof (for example, the concentration of the crystal violet) may be measured by a spectrophotometer to measure the biomass of the biofilm was measured. PAO1-derived PsI polysaccharide negative strain (PAO1, A psi) may be used as a negative control, and PAO1-derived PsI polysaccharide inducible strain (PAO1, PBAD-psI) (arabinose used as an inducer) may be used as positive control.
A fresh single colony of Pseudomonas aeruginosa on the LBNS plate may be inoculated in LBNS liquid medium, carried out shake culture at 200 rpm at 37 degrees centigrade for 12 hours, and then inoculated in Jensen's medium with 1% inoculum dose, at the same time, different concentrations of PsIG protein may be added. After static culture in a 96-well plate at 30 degrees centigrade for 24 hours, liquid cultures were discarded and the biofilm may be stained with the crystal violet, and biomass of the biofilm was detected, in which specific operations may refer to the steps in Example 1. […]

[3] = tested on: formed biofilm of Pseudomonas aeruginosa; test: Disruption of formed biofilm, crystal violet staining; type: cell-based
Excerpt: as §1
A fresh single colony of Pseudomonas aeruginosa on the LBNS plate may be inoculated in LBNS liquid medium, carried out shake culture at 200 rpm at 37 degrees centigrade for 12 hours, and then inoculated in Jensen's media with 1% inoculum dose, with static culture in a 96-well plate at 30 degrees centigrade for 24 hours. Cultures may be discarded and the biofilm (surface-attached bacteria) was washed with 0.8% physiological saline for three times. 100 μl Jensen's media containing 1 nM PsIG may be added into wells and the biofilm treated for 5 or 30 minutes. Then, biomass of the treated biofilm may be detected by the crystal violet staining method, in which specific operation steps of the crystal violet staining method may refer to Example 2.
At the same time, Jensen's media without addition of PsIG may be used as a control group.
A fresh single colony of Pseudomonas aeruginosa on the LBNS plate may be inoculated in LBNS liquid medium, carried out shake culture at 200 rpm at 37 degrees centigrade for 12 hours, and then inoculated in Jensen's media with 1% inoculum dose, and carried out static culture in a 96-well plate at 30 degrees centigrade for 24 hours. Cultures were discarded and the biofilm was washed with 0.8% physiological saline for three times. 100 μl Jensen's media containing 50 nM PsIG protein was added and the biofilm was treated for different times. Then, biomass of the treated biofilms may be tested by a crystal violet staining method, in which specific operation steps of the crystal violet staining method may refer to Example 2.

[4] = tested on: biofilm of Pseudomonas syringae; test: Inhibition of biofilm formation, crystal violet staining; type: cell-based; details: 50 nM PsIG
Pseudomonas aeruginosa [5] = test: Inhibitory zone on LBNS plate with filter paper; type: cell-based; details: 50 nM PsIG; 24 hours at 37 degrees centigrade
Procedure: As shown in FIG. 9(a), four experimental groups may be set for buffer; 50 nM PsIG; tobramycin (TOB); combination of TOB and PsIG, respectively. Experiment 2:
As shown in FIG. 9(b), four experimental groups may be set for buffer; 50 nM PsIG; ciprofloxacin (CIP); combination of CIP and PsIG, respectively.

Caco2 = details: PsIG treatment 12 hours
Excerpt: (§2) Cytotoxicity of a PsIG protein may be detected by human colon epithelial cell line Caco2 and HT-29.

HT-29 = details: PsIG treatment 12 hours
Excerpt: as §2

PAO1 biofilm = test: Clearance of PsIG-treated biofilm by macrophages, CFU count; type: cell-based, Pseudomonas aeruginosa; details: biofilm treated with PsIG 1 hour, then macrophages 2 hours; versus controls without PsIG
Procedure: The PAO1 biofilm cultured on glass coverslips for 24 hours was treated with PsIG and co-incubated with macrophages, and then scraped and resuspended in 1 ml of physiological saline to quantify colony formation unit (CFU). The mean and SD values of CFU obtained by three repeated experiments were shown in the figure and T test (*, P<0.01) was performed for different experimental groups.
The PAO1 biofilm cultured on glass coverslips for 24-hours may be treated with the PsIG protein for 1 hour, and then incubated with macrophages for 2 hours, and remaining biofilm may be scraped and resuspended in 1 ml of physiological saline for colony formation unit (CFU).

[6] = tested on: biofilm of Pseudomonas aeruginosa on implants; test: Mouse implant infection model; type: in vivo; details: mouse peritoneum, local treatment, 24 hours; 50 nM PsIG and/or 50 mg kg-1 tobramycin
Procedure: FIG. 12 illustrates a mouse implant infections model. PsIG improves host clearance of implant biofilms and show combinatory effect with Tob in eradication of implant biofilms in vivo. The horizontal dashed line represents a detection limit of the experiment, which is shown as mean (*P<0.01) of the biofilm counts in five mice.
Implants coated by the biofilm of Pseudomonas aeruginosa may be inserted into mouse peritoneum and the following treatments may be performed locally: 50 nM PsIG treatment alone; 50 mg kg-1 tobramycin treatment alone; the 50 nM PsIG and the 50 mg kg-1 tobramycin co-treatment. After culture in vivo for 24 hours, mice may be sacrificed so as to harvest the implants, and the implants may be removed out and counted on LB plates after homogenization. The number of Pseudomonas aeruginosa on the implants may be tabulated with a format of CFU/ml.

[7] = tested on: L4-stage Caenorhabditis elegans; test: Toxicity of PsIG-dispersed biofilm bacteria to C. elegans; type: in vivo; details: co-incubated 25 degrees centigrade, 48 hours; live/dead nematodes
Procedure: The experiment may be carried out by using C. elegans as a host model.
Two experimental groups may be set for Experimental group 1 and Experimental group 2, respectively.
Experiment group 1: the bacterial cells collected from a PsIG-treated bacterial biofilm (a biofilm of Pseudomonas aeruginosa) may be co-incubated with L4-stage Caenorhabditis elegans.
Experimental group 2: co-incubation the planktonic culture of Pseudomonas aeruginosa grown for 24 hours may be co-incubated L4-stage Caenorhabditis elegans.
Experimental group 1 and Experimental group 2 were placed in 96-well plates respectively and co-incubated at 25 degrees centigrade for 48 hours. […] Each group was repeated for three times, the results are expressed with a format of the mean value±SD value.

[8] = Degradation of PsI polysaccharide in vitro, immunoblotting; type: biochemical, Pseudomonas aeruginosa; details: 50 nM PsIG
Excerpt: Preparation and purification of PsI polysaccharide may be carried out with reference to published document (Molecular Microbiology 2009; 73:622-638, titled Genetic and biochemical analyses of the Pseudomonas aeruginosa PsI exopolysaccharide reveal overlapping roles for polysaccharide synthesis enzymes in PsI and LPS production, written by Byrd M S, Sadovskaya I, Vinogradov E et al.)
The standard curve may be prepared according to the following method: PsI polysaccharide prepared by the above method may be diluted 10 times with gradient and the PsI polysaccharide may be detected by immunoblotting.
To Solution 1 (PBS phosphate buffer), PsI polysaccharide and 50 nM of the PsIG protein obtained in Example 16 may be added to obtain Reaction system 1, the concentration of PsI polysaccharide in reaction system 1 may be 4 mg/ml, and the concentration of PsIG protein may be 50 nM. The eight same reaction systems 1 may be incubated at 20 degrees centigrade, 25 degrees centigrade, 30 degrees centigrade, 37 degrees centigrade, 40 degrees centigrade, 45 degrees centigrade, 50 degrees centigrade and 55 degrees centigrade for one hour, respectively, and then remaining PsI polysaccharide may be detected with a PsI polysaccharide antibody (the PsI polysaccharide antibody may be obtained by using PsI polysaccharide as immunogen) by immunoblotting. […]

[9] = tested on: mouse macrophages (RAW264.7)

Row | Molecule | MIC values for bacteria dispersed from biofilms by PsIG compared with planktonic cells (Pseudomonas aeruginosa [1]) | inhibitory rate on biofilm formation ([2]; PsIG protein at 1 nM, static culture 30 degrees centigrade, 24 hours) | inhibition of formation of the biofilm ([2]; concentration l0nm-50nm, static culture 24 hours) | reduction of biomass of formed biofilm ([3]; 1 nM PsIG, treated 30 minutes, 24-hour biofilm) | effect on biomass of formed biofilm ([3]; 1 nM PsIG, treated five minutes, 24-hour biofilm) | reduction of biomass of formed biofilm ([3]; 50 nM PsIG, treated 10 minutes, 24-hour biofilm) | effect on biomass of formed biofilm ([3]; 50 nM PsIG, treated 30 minutes, 24-hour biofilm) | effect on biomass of formed biofilm ([3]; 50 nM PsIG, treated five minutes, 24-hour biofilm) | effect on biomass of formed biofilm ([3]; 50 nM PsIG, treated more than 30 minutes) | inhibitory effect on biofilm [4] | inhibitory zone, PsIG alone (Pseudomonas aeruginosa [5]) | effect on activity of colon epithelial cells (MTT) (Caco2) | effect on activity of colon epithelial cells (MTT) (HT-29) | number of remaining bacteria of the biofilm (PAO1 biofilm) | number of bacteria on the implants [6] | toxicity of PsIG-dispersed biofilm bacteria versus planktonic bacteria [7] | temperature of highest degradation rate of PsI polysaccharide ([8]; 4 mg/ml PsI, one hour) | reduction of amount of PsI polysaccharide compared with untreated control ([8]; 30 degrees centigrade, 1 hour) | toxic effects on macrophages [9]
1 | O=C(O)c1cn(C2CC2)c2cc(N3CCNCC3)c(F)cc2c1=O [ciprofloxacin] | lower |  |  |  |  |  |  |  |  |  |  |  |  |  |  |  |  |  | 
2 | NC[C@H]1O[C@H](O[C@H]2[C@H](O)[C@@H](O[C@H]3O[C@H](CO)[C@@H](O)[C@H](N)[C@H]3O)[C@H](N)C[C@@H]2N)[C@H](N)C[C@@H]1O [tobramycin] | lower |  |  |  |  |  |  |  |  |  |  |  |  |  |  |  |  |  | 
3 | B1 |  | 50% | significantly inhibit | 50% | no effect | 50% | reduced to a level similar to the PsI polysaccharide-negative strain | significantly reduced | no more significant reduction | same inhibitory effects | does not produce inhibitory zone | no effect | no effect | least | ≈ 10^3 CFU/mL | no significant difference in toxicity | 45 degrees centigrade | 75% | not shown any toxic effects
